Reference: patent US20240076386A1 (Pfizer, published 2024)

Experiments:
[1] = target: T1, human E-selectin, cell-surface expressed (human, UniProt P16581 22-610); experiment: cell-based or functional assay
T1 sequence: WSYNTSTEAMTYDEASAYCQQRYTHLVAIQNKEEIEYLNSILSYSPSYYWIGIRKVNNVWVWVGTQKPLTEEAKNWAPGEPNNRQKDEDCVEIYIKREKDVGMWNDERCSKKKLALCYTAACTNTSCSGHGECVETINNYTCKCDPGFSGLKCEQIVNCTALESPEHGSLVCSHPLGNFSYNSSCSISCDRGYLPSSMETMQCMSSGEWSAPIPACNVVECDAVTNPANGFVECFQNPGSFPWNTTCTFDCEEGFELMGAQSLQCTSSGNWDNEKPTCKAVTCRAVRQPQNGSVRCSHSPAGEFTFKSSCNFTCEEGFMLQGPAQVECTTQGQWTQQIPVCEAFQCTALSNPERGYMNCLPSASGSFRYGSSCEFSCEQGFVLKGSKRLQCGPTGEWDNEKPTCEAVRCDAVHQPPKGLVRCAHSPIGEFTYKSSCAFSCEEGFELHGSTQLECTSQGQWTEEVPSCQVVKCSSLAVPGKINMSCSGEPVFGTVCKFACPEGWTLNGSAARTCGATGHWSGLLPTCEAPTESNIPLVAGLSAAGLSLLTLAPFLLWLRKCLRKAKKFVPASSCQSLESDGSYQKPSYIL

[2] = target: T2, cynomolgus monkey E-selectin, cell-surface expressed (cynomolgus monkey, UniProt P16581 22-610 (human entry)); experiment: cell-based or functional assay
T2 chain: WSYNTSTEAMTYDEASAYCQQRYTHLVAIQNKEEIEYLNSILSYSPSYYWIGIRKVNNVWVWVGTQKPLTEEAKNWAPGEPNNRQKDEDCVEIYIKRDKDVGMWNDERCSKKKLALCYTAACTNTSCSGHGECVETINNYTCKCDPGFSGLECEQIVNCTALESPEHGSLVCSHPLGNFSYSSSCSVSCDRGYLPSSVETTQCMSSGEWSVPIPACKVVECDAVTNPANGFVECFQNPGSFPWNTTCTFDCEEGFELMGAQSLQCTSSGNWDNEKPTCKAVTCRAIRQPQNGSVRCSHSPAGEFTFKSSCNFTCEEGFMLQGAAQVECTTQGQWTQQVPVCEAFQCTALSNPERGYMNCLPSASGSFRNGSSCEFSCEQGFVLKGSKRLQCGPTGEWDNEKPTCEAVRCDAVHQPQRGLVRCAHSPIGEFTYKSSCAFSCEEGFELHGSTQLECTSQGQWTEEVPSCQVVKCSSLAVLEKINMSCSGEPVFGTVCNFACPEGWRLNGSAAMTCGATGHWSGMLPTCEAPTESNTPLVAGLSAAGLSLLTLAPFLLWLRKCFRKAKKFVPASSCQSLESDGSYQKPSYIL

[3] = target: T3, recombinant histidine-tagged human E-selectin (Sino Biologicals; 13025-H08H) (human, UniProt P16581 22-556); experiment: cell-based or functional assay
T3 sequence (looked up): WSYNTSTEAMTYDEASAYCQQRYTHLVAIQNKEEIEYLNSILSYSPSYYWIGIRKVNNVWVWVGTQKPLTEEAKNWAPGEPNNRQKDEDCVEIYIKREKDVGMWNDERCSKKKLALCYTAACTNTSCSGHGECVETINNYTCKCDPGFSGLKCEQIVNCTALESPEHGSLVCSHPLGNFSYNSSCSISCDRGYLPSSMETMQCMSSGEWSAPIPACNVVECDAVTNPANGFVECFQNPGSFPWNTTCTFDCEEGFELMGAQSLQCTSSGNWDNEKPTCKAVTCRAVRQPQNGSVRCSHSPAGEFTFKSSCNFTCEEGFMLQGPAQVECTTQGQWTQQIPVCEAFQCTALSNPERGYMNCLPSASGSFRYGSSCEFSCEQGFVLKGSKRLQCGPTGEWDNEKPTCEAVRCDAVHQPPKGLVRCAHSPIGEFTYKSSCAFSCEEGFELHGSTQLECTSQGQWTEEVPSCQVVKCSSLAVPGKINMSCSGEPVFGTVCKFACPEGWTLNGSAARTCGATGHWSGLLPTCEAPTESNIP

[4] = target: T1, human E-selectin, cell-surface expressed; experiment: neutralization of sialyl Lewis A ligand binding, CHO cells, competition ELISA
Method: (§1) In a static ligand cellular adhesion assay, horse radish peroxidase (HRP) conjugated E-selectin ligand (sialyl Lewis antigen) and E-selectin antibodies compete for binding to human or cynomolgus E-selectin expressed on Chinese hamster ovary (CHO) cells. The ability of anti-E-selectin antibodies to neutralize ligand binding was assessed in a static neutralization assay using a competition enzyme-linked immunosorbent assay (ELISA) to evaluate the neutralization of the sialyl Lewis antigen to Chinese hamster ovary cells (CHO) engineered to express human or cynomolgus monkey E-selectin.
(§2) CHO cells expressing E-selectin were seeded at 12,500 cells per well into a 96 well tissue culture plate and incubated at 37° C., 5% CO₂ for 48 hours to form a confluent monolayer. Plates were subsequently washed twice with 200 μL of calcium magnesium free PBS. Anti-E-selectin antibodies or an IgG1 isotype control (IgG control) were added to the assay in the presence of a small synthetic conjugate of biotinylated, sialyl Lewis A polyacrylamide (Carbosynth LLC, OS45446) or sialyl Lewis X polyacrylamide (Glycotech, 01-045) with streptavidin/horseradish peroxidase (100 μL total) and incubated at 37° C., 5% CO₂ for 2 hours. […] Reactions were stopped using 2 M of sulfuric acid and absorbance was read at 450 nm (Spectramax M5e). Data were analyzed and graphed using GraphPad Prism software (Version 8.0.2).

[5] = target: T2, cynomolgus monkey E-selectin, …; experiment: as above
Method: as §1, §2

- HL-60 adhesion under physiological flow to human CHO-E-selectin cells, IC50 [1]: 4.41 nM
- HL-60 adhesion under physiological flow to cells expressing cynomolgus monkey E-selectin, IC50 [2]: 4.34 nM
- HL-60 cellular adhesion under physiological flow to purified soluble human E-selectin protein, IC50 [3]: 15.3 nM
- adhesion of SCD patient blood cells under physiological flow to recombinant E-selectin, IC50 (one donor) [3]: 6.17 nM
- adhesion of SCD patient blood cells under physiological flow to recombinant E-selectin, IC50 (other donor) [3]: 18.7 nM
- IC50 [4]: 1.88 to 2.89 nM
- IC50 [5]: 1.47 to 2.65 nM
B1: optimized anti-E-selectin antibody 1444 (antibody, human IgG1, kappa, V domains shown)
VH: EVQLVESGGGLVQPGGSLRLSCAASGYAIRSAYMHWVRQAPGKGLEWVARIDPANGNTIYVDSVTGRFTISADNAKNSAYLQMNSLRAEDTAVYYCAMDLYSTSEYWGQGTLVTVSS
VL: DIQMTQSPSSLSASVGDRVTITCKTSQNIERYLNWYQQKPGKAPKLLIYAASSLQSGVPSRFSGSGSGTDFTLTISSLQPEDFATYFCLQDNAWPLTFGQGTKVEIKR
notes: effector-null human IgG1, kappa
